Results: the DeepSol protein solubility set

assay: soluble on expression in E. coli; label from the status in PepcDB or PDB records

Soluble on expression in E. coli, soluble:
GSHMVNIIQKFIPVGANNRPGYAMKPKYITVHNTANTAVGADAAAHARYLKNPDTTTSWHFTVDDKEIYQHLPLNENGWHAGDGNGSGNRASIGIEICENADGDFAKATANAQWLIKTLMAEHNISLANVVPHKYWSGKECPRKLLDKWDSFKAGIG, GSHMVVELAYTDPDRAVDWLVRVFGFRLLLRQPAIGTIRHADLDTGGGIVMVRRTGEPYTVSCAGGHTCKQVIVWVSDVDEHFMRSTAAGADIVQPLQDKPWGLRQYLVRDLEGHLWEFTRHLRDVPPREWGAVAMT, GSLKCILLNQAEELPIEFLPKDGVYGKGKLFDSRNMEIENFTESDILQDARRAAEAHRRARYRVQSIVRPGITLLEIVRSIEDSTRTLLKGERNNGIGFPAGMSMNSCAAHYTVNPGEQDIVLKEDDVLKIDFGTHSDGRIMDSAFTVAFKENLEPLLVAAREGTETGIKSLGVDVRVCDIGRDINEVISSYEVEIGGRMWPIRPISDLHGHSISQFRIHGGISIPAVNNRDTTRIKGDSFYAVETFATTGKGSIDDRPPCSHFVLNTYKSRKLFNKDLIKVYEFVKDSLGTLPFSPRHLDYYGLVKGGSLKSVNLLTMMGLLTPYPPLNDIDGCKVAQFEHTVYLSEHGKEVLTRGDDY, GSMALTQVETEIVPVSVDGETLTVEAVRRVAEERATVDVPAESIAKAQKSREIFEGIAEQNIPIYGVTTGYGEMIYMQVDKSKEVELQTNLVRSHSAGVGPLFAEDEARAIVAARLNTLAKGHSAVRPIILERLAQYLNEGITPAIPEIGSLGASGDLAPLSHVASTLIGEGYVLRDGRPVETAQVLAERGIEPLELRFKEGLALINGTSGMTGLGSLVVGRALEQAQQAEIVTALLIEAVRGSTSPFLAEGHDIARPHEGQIDTAANMRALMRGSGLTVEHADLRRELQKDKEAGKDVQRSEIYLQKAYSLRAIPQVVGAVRDTLYHARHKLRIELNSANDNPLFFEGKEIFHGANFHGQPIAFAMDFVTIALTQLGVLAERQINRVLNRHLSYGLPEFLVSGDPGLHSGFAGAQYPATALVAENRTIGPASTQSVPSNGDNQDVVSMGLISARNARRVLSNNNKILAVEYLAAAQAVDISGRFDGLSPAAKATYEAVRRLVPTLGVDRYMADDIELVADALSRGEFLRAIARETDIQLR, GSMHEYSVVSSLIALCEEHAKKNQAHKIERVVVGIGERSAMDKSLFVSAFETFREESLVCKDAILDIVDEKVELECKDCSHVFKPNALDYGVCEKCHSKNVIITQGNEMRLLSLEMLAE, GSMKPYKELERVFTKLYRYGHMLLLADWDSHTMMPCKGSDARGAAMAELQLHMHDTITAPKIRALIEEAEKSVGDLEKLQRANLREMRRAWELENLLPEEFVERKTVLTTKAHQVWKTCREKNDFAGFLPTLKELIALFREEGKLRAGNSGKHPYEALVDIYEPGMTLQRLDEIFGNVRSWLPELLKEVQEKQKALGETVLEPKGPFPVSKQEALCRFFMDVWKFDFDGGRLDVSAHPFCGNSKEDVRITTKYTETEFVTSLLGVIHETGHAKYEQNCGPKGFETQPVCMARSLGVHEGQSLFAEMQIGRSGAFMEFLAPRLVEYFGDQPAFTSSNMKRVIQRVSPGLIRIDADELCYPLHVMLRYEIERDLMDGNIEAEEVPRVWNEKMKSYLGLETLGNDKEGCLQDVHWSGGMFGYFPTYSLGAMVAAQLMSCVRRELGEEVVDDCIRKGDLGKILAKQNEKIWQHGSSLTTDELLRQATGETLNPEHYRRHLERRYRDDRG, GSMSTKNFRVSDGDWICPDKKCGNVNFARRTSCDRCGREKTTGPI, GSPEFRWTKEEEETRQMYDMVVKIIDVLRSHNEACQENKDLQPYMPIPHVRDSLIQPHDRKKMKKVWDRAVDFLAANESRVRTETRRIGGADFLVWRWIQPSASCDKILVIPSKVWQGQAFHLDRRLERPHRD, GSPGGSLFVALYDFVASGDNTLSITKGEKLRVLGYNHNGEWCEAQTKNGQGWVPSNYITPVS, GSPGIPGSTRMAYQHCPFDTLLILDFETTSDAANQDYPCEVIQFAIVAYDVPNDKIREDISFNKYVKPVLNRTLTKNCVDFTGIPQRSIDTADTFDVVYEQFQQWLITLGLEEGKFAFVCDSRQDLWRIAQYQMKLSNIQMPAFFRQYINLYKIFTNEMDRMGPKELSATTNIGKMNEYYDLPTIGRAHDAMDDCLNIATILQRMINMGAKVTVNELLTCCASWRRQPLVYNKEWRSSFMDAGKIFERVLPLVVTTIRAGDFRLEMYGVCRYCRKGMDVCGTSHQQTPHDLYKNEEDPIHFAKIAGYY, GSQEQKGDAPTCGICHKTKFADGCGHNCSYCQTKFCARCGGRVSLRSNKVMWVCNLCRKQQE, GSQRVLVEPDAGAGVAVMKFKNPPVNSLSLEFLTELVISLEKLENDKSFRGVILTSDRPGVFSAGLDLTEMCGRSPAHYAGYWKAVQELWLRLYQSNLVLVSAINGACPAGGCLVALTCDYRILADNPRYCIGLNETQLGIIAPFWLKDTLENTIGHRAAERALQLGLLFPPAEALQVGIVDQVVPEEQVQSTALSAIAQWMAIPDHARQLTKAMMRKATASRLVTQRDADVQNFVSFISKDSIQKSLQMYLERLKEEKG, GSRNHCPHLDSVGEITKEDLIQKSLGTCQDCKVQGPNLWACLENRCSYVGCGESQVDHSTIHSQETKHYLTVNLTTLRVWCYACSKEVFLDRKLGTQ, GSRTVDLELELQIELLRETKRKYESVLQLGRALTAHLYSLLQTQHALGDAFADLSQKSPELQEEFGYNAETQKLLCKNGETLLGAVNFFVSSINTLVTKTMEDTLMTVKQYEAARLEYDAYRTDLEELSLGPRDAGTRGRLESAQATFQAHRDKYEKLRGDVAIKLKFLEENKIKVMHKQLLLFHNAVSAYFAGNQKQLEQTLQQFNIKLRPPGAEKPSWLEEQ, GSSCPGKSSWPHLVGVGGSVAKAIIERQNPNVKAVILEEGTPVTKDFRCNRVRIWVNKRGLVVSPPRIG, GSSGSSGMCGRFAQSQTREDYLALLAEDIERDIPYDPEPIGRYNVAPGTKVLLLSERDEHLHLDPVFWGYAPGWWDKPPLINARVETAATSRMFKPLWQHGRAICFADGWFEWKKEGDKKQPFFIYRADGQPIFMAAIGSTPFERGDEAEGFLIVTAAADQGLVDIHDRRPLVLSPEAAREWMRQEISGKEASEIAASGCVPANQFSWHPVSRAVGNVKNQGAELIQPV, GSSKSWANHENKTVNKITVVGGGELGIACTLAISAKGIADRLVLLDLSEGTKGATMDLEIFNLPNVEISKDLSASAHSKVVIFTVNSLGSSQSYLDVVQSNVDMFRALVPALGHYSQHSVLLVASQPVEIMTYVTWKLSTFPANRVIGIGCNLDSQRLQYIITNVLKAQTSGKEVWVIGEQGEDKVLTWSGQEEVVSHTSQVQLSNRAMELLRVKGQRSWSVGLSVADMVDSIVNNKKKVHSVSALAKGYYDINSEVFLSLPCILGTNGVSEVIKTTLKEDTVTEKLQSSASSIHSLQQQLKL, GTVKVYLPNKQRTVVTVRDGMSVYDSLDKALKVRGLNQDCCVVYRLIKGRKTVTAWDTAIAPLDGEELIVEVL, GVADASDPIRPLVEALNAEAPLKLWSVLVTCLGDVSRDGVIEVSGVALSSFVERMGLQPQAMRVALHRLKRDGWVESRRLGRVGFHRLSDSALTQTRAVAGRIYGPGAGPAPWHLAGMPPDAPDGLSLLPDTLSATPISRRFALICGPLEDVPEDWLLTAPSGRGLPVWVQDVVVEAGCEAEFKALERTLAQIDKVPDTRLERFTLRVLVLHAWRRLILRSSPAAEAALGGARAEISCRARVHQLLDQLGSVEPDWDLPATEDAAS, GVDRDYLQSEYGVLKAGQCYKVVRSFRDYRNINYERGDVMRFLGSNFVPYESGLSLFFDKNGSERQIMLCVRPEFQMEIAHHLDSYFCKLDDN, GVFTYESEFTSEIPPPRLFKAFVLDADNLVPKIAPQAIKHSEILEGDGGPGTIKKITFGEGSQYGYVKHKIDSIDKENYSYSYTLIEGDALGDTLEKISYETKLVASPSGGSIIKSTSHYHTKGNVEIKEEHVKAGKEKASNLFKLIETYLKGHPDAYN
